Assay results as given in US11634743B2, “Coupled, self-sufficient biotransformation of chenodeoxcholic acid to ursodeoxycholic acid and novel enzyme mutants applicable in said process” (Pharmazell GmbH, priority 2016, dated 2023).

Legend:
[1] = Photometric activity assay of E. coli 7α-HSDH wildtype and mutants (crude extracts); assay type: biochemical; details: crude extract, substrate CDCA
Protocol: The reaction mixture contained in a total volume of 1 ml:
880 μl 50 mM potassium phosphate (KPi) buffer, pH 8.0
100 μl 100 mM CDCA (dissolved in 50 mM KPi, pH 8)
10 μl Enzyme solution (in buffer as above, in the range of 2 to 6 U/ml)
10 μl 50 mM NAD^+ or NADP^+ (dissolved in ddH2O)
An increase of extinction was determined at 340 nm over a period of 30 seconds and the activity was expressed as enzyme unit (1 U corresponds to a conversion of 1 μmol NAD(P)H/min). The molar extinction coefficient was 6.22 mM^−1×cm^−1.
The photometric activity assay of the crude extract was performed by means of a UV-1700 spectrophotometer (Shimadzu, Japan) (see method described above under item 1.7). In Table 8, the specific activity values of individual mutants as obtained for NAD^+ and NADP^+ are summarized.

[2] = Coupled one-step conversion of CDCA to UDCA with isolated enzymes, NAD(H) as cofactor; assay type: biochemical; details: 25 mM CDCA, 100 mM KPi pH 7.0, 25° C., 0.25 mM NAD^+
[3] = Coupled one-step conversion of CDCA to UDCA with isolated enzymes, NADP(H) as cofactor; assay type: biochemical; details: 10 mM CDCA, 100 mM KPi pH 6.0, 25° C., 0.5 mM NADP^+
Protocol: The enzymatic synthesis of UDCA with isolated enzymes was performed standardized in 100 mM KPi buffer (pH 7.0) at 25° C. The reaction mixtures were magnetically stirred at 500 to 700 rpm. The cofactor concentration was 0.25 mM NAD^+. For the biotransformation with NAD^+ as cofactor, the reaction was performed with […] enzyme, and for the biotransformation with NADP^+ as cofactor the reaction was performed with 0.5 U/ml 7α-HSDH and 1.0 U/ml 7β-HSDH. After pre-determined time intervals, samples were taken and analyzed by means of HPLC.
In a second experiment, the biotransformation was performed in a one-step process with NADP(H) as cofactor. The enzymatic conversion of 10 mM CDCA was performed in 100 mM KPi buffer pH 6.0 at 25° C. with the 7β-HSDH [G39S/R64E] (SEQ ID NO:45) and the Cd7α-HSDH from C. difficile (SEQ ID NO:35) in a one-step process. The cofactor concentration was 0.5 mM NADP^+. For the 7-KLCA reduction, a […] 7β-HSDH from C. aerofaciens was applied and for the CDCA oxidation step the 7α-HSDH from C. difficile was applied. As illustrated a one-step conversion of CDCA in a directly coupled oxidation and reduction reaction with a NADP^+-dependent 7β-HSDH is operable.

[4] = Small-scale biotransformation of CDCA to 7-KLCA with Cd7α-HSDH and NAD(P)H oxidase, HPLC; assay type: biochemical; details: 10 mM CDCA, NADP^+ regenerated by NAD(P)H oxidase, after 18.5 h
Protocol: FIG. 5: Biotransfomation of CDCA (10 mM) in aqueous system (KPi, pH 7.0), containing 5 U Cd7α-HSDH and 50 U NOX during 18.5 hours. After 3.5 h and 7 h additional 50 U NOX were added to the reaction. Concentration of CDCA (-∘-CDCA) and 7-KLCA (-⋅-7-KLCA) were determined by HPLC.
HPLC analysis was performed on a Purospher® STAR RP-18 column (Merck, Germany) on a HPLC LC-2010AHT-System (Shimadzu, Japan) at a flow rate of 1 ml/min. The mobile phase consisted of two eluents. Eluent A was distilled water (pH 2.6 adjusted with orthophosphoric acid 85%) and eluent B HPLC-grade acetonitrile. The starting condition for the gradient program was 65% eluent A and 35% eluent B. The system was monitored by UV detector at 200 nm. Totally, 20 μl samples with a bile acid concentration in the range of 1 mg/ml were analyzed. Authentic samples of CDCA, 7-KLCA and UDCA at the same concentration were used as references.
For the biotransformation in a small-scale 10 mM CDCA in KPi-buffer (100 mM, pH 7.0), 0.1 mM NADP^+, 0.5 U mL^−1 Cd7α-HSDH and 5 U mL^−1 NADPH-oxidase were incubated at 25° C. The biotransformation were done in glass vials with a stirring bar in it and a stirrer speed of 500 rpm for 18 hours. Samples were taken periodically and diluted with methanol-water (pH 2.6) (9:1 v/v) for H PLC-analysis. […]

[5] = CDCA as substrate

Molecule	activity with NADP^+ [1] [U/mg]	activity with NAD^+ [1] [U/mg]	further results
7α-HSDH [D42A/I43R]: double mutant D42A/I43R of E. coli 7α-HSDH (SEQ ID NO: 37) (protein, listed as Escherichia coli) MFNSDNLRLDGKCAIITGAGAGIGKEIAITFATAGASVVVSARNADAANHVVDEIQQLGGQAFACRCDITSEQELSALADFAISKLGKVDILVNNAGGGGPKPFDMPMADFRRAYELNVFSFFHLSQLVAPEMEKNGGGVILTITSMAAENKNINMTSYASSKAAASHLVRNMAFDLGEKNIRVNGIAPGAILTDALKSVITPEIEQKMLQHTPIRRLGQPQDIANAALFLCSPAASWVSGQILTVSGGGVQELN	2.1	0	–
7α-HSDH [I43R]: single mutant I43R of E. coli 7α-HSDH (SEQ ID NO: 37) (protein, listed as Escherichia coli) MFNSDNLRLDGKCAIITGAGAGIGKEIAITFATAGASVVVSDRNADAANHVVDEIQQLGGQAFACRCDITSEQELSALADFAISKLGKVDILVNNAGGGGPKPFDMPMADFRRAYELNVFSFFHLSQLVAPEMEKNGGGVILTITSMAAENKNINMTSYASSKAAASHLVRNMAFDLGEKNIRVNGIAPGAILTDALKSVITPEIEQKMLQHTPIRRLGQPQDIANAALFLCSPAASWVSGQILTVSGGGVQELN	0.4	51.8	–
7α-HSDH [D42G]: single mutant D42G of E. coli 7α-HSDH (SEQ ID NO: 37) (protein, listed as Escherichia coli) MFNSDNLRLDGKCAIITGAGAGIGKEIAITFATAGASVVVSGINADAANHVVDEIQQLGGQAFACRCDITSEQELSALADFAISKLGKVDILVNNAGGGGPKPFDMPMADFRRAYELNVFSFFHLSQLVAPEMEKNGGGVILTITSMAAENKNINMTSYASSKAAASHLVRNMAFDLGEKNIRVNGIAPGAILTDALKSVITPEIEQKMLQHTPIRRLGQPQDIANAALFLCSPAASWVSGQILTVSGGGVQELN	0.3	0.4	–
7β-HSDH [G39E]: NAD(H)-dependent 7β-HSDH mutant G39E from C. aerofaciens, SEQ ID NO:48 (C-His-Tag) (protein, C-terminal His-tag; 7beta-HSDH Mutante [G39E] C. aerofaciens + C-terminal His-Tag) MNLREKYGEWGLILGATEGVGKAFCEKIAAGGMNVVMVERREEKLNVLAGEIRETYGVETKVVRADFSQPGAAETVFAATEGLDMGFMSYVACLHSFGKIQDTPWEKHEAMINVNVVTFLKCFHHYMRIFAAQDRGAVINVSSMTGISSSPWNGQYGAGKAFILKMTEAVACECEGTGVDVEVITLGTTLTPSLLSNLPGGPQGEAVMKIALTPEECVDEAFEKLGKELSVIAGQRNKDSVHDWKANHTEDEYIRYMGSFYRDLEHHHHHH	–	–	one-step conversion of CDCA in directly coupled oxidation and reduction [2]: operable
7β-HSDH [G39S/R64E]: NADP+-dependent 7β-HSDH double mutant G39S/R64E from C. aerofaciens, SEQ ID NO:45 (protein, 7beta-HSDH Mutant [G39S/R64E] C. aerofaciens + C-terminal His-tag) MNLREKYGEWGLILGATEGVGKAFCEKIAAGGMNVVMVSRREEKLNVLAGEIRETYGVETKVVEADFSQPGAAETVFAATEGLDMGFMSYVACLHSFGKIQDTPWEKHEAMINVNVVTFLKCFHHYMRIFAAQDRGAVINVSSMTGISSSPWNGQYGAGKAFILKMTEAVACECEGTGVDVEVITLGTTLTPSLLSNLPGGPQGEAVMKIALTPEECVDEAFEKLGKELSVIAGQRNKDSVHDWKANHTEDEYIRYMGSFYRDLEHHHHHH	–	–	one-step conversion of CDCA in directly coupled oxidation and reduction [3]: operable
Cd7α-HSDH: NADP+-dependent 7α-hydroxysteroid dehydrogenase from Clostridium difficile (DSM 12056), SEQ ID NO: 34; with N-His-tag SEQ ID NO: 35 (protein, Clostridium difficile) MEKLQGKIAVVTAATKGIGLASAEILAKNGATVYLAARSEELAHEVINKISAEGGCAKFVYFNAREEETFTSMIEEVVKKEGKIDILVNNFGSTNPSLDKDLVTGDTDNFFDTVNTNLKSVYLPCKAAIPHMIKNGKGSIVNISSIGSVLPDLSRIAYCVSKAAINSLTQNIATQYAKDNVRCNAVLPGLIATKAALDNMSPEFIKEFLKHVPLNRIGEPDDIAKAVLFYASDDSSFITGDLLEVAGGFGLPTPQFADNILG	–	–	conversion of CDCA to 7-KLCA [4]: > 99%; conversion of CDCA to 7-KLCA ([4]; listed as enzyme from C. difficile): < 99%; one-step conversion of CDCA in directly coupled oxidation and reduction [3]: operable; activity ([5]; 45° C.): 11 U mg^−1; activity (maximum) ([5]; 60° C.): 77 U mg^−1; temperature of maximum activity ([5]; investigated between 15 and 65° C.): 60 °C
7α-HSDH [D42G/I43R]: NADP+-dependent double mutant D42G/I43R of E. coli 7α-HSDH, SEQ ID NO: 41 (N-His-Tag) (protein, N-terminal His-tag; 7alpha HSDH E. coli mutant D42G/I43R + N-terminal His-Tag) MGSSHHHHHHSSGLVPRGSHMFNSDNLRLDGKCAIITGAGAGIGKEIAITFATAGASVVVSGRNADAANHVVDEIQQLGGQAFACRCDITSEQELSALADFAISKLGKVDILVNNAGGGGPKPFDMPMADFRRAYELNVFSFFHLSQLVAPEMEKNGGGVILTITSMAAENKNINMTSYASSKAAASHLVRNMAFDLGEKNIRVNGIAPGAILTDALKSVITPEIEQKMLQHTPIRRLGQPQDIANAALFLCSPAASWVSGQILTVSGGGVQELN	6.3	0.1	activity with NADP^+ ([1]; listed as no. 4): about 6.3 U/mg; activity with NAD^+ ([1]; listed as no. 4): only marginal activity
7α-HSDH [wildtype]: NAD+-dependent 7α-HSDH of E. coli, wildtype, SEQ ID NO: 38 (N-His-Tag) (protein, N-terminal His-tag; E. coli 7alpha HSDH WT + N-terminal His Tag) MGSSHHHHHHSSGLVPRGSHMFNSDNLRLDGKCAIITGAGAGIGKEIAITFATAGASVVVSDINADAANHVVDEIQQLGGQAFACRCDITSEQELSALADFAISKLGKVDILVNNAGGGGPKPFDMPMADFRRAYELNVFSFFHLSQLVAPEMEKNGGGVILTITSMAAENKNINMTSYASSKAAASHLVRNMAFDLGEKNIRVNGIAPGAILTDALKSVITPEIEQKMLQHTPIRRLGQPQDIANAALFLCSPAASWVSGQILTVSGGGVQELN	0	51.6	–
